Test results from the supplement of paper PMC12783771.
± gives the standard deviation of the averaged measurements.

B1: library; numbered along this chain (parent)
chain: MNIQIGELAKRTACPVVTIRFYEQEGLLPPPGRSRGNFRLYGEEHVERLQFIRHCRSLDMPLSDVRTLLSYRKRPDQDCGEVNMLLDEHIRQVESRIGALLELKHHLVELREACSGARPAQSCGILQGLSDCVCDTRGTTAHPSD

Assays:
[1] = variants of: B1; test: sfGFP reporter fluorescence (15 h) (µM FITC); higher = higher leak; conditions: library round: Round 0; ligand: none
How it was run: (§1)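 An Echo normalized PCR-made linear PbrR templates to 5 nM and assembled 1 μL reactions in BL21 Star (DE3) PANOx-SP extract carrying the pPbrR-sfGFP reporter plasmid and 30 μg/mL GamS. Reactions received 1 µM lead chloride, 30 µM zinc acetate or no metal and stood 15 hr at 30 °C. Fluorescence at 485/528 nm (Synergy Neo2) was converted with FITC standard curves made in 50 mM sodium borate pH 8.5. Endpoint sfGFP signal is given in µM FITC, from up to three biological replicates.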

[2] = variants of: B1; test: sfGFP reporter fluorescence (15 h) (µM FITC); higher = stronger transcriptional activation; conditions: library round: Round 0
How it was run: as §1

Variant | sfGFP reporter fluorescence [1] | sfGFP reporter fluorescence ([2]; ligand: 1 µM Pb) | sfGFP reporter fluorescence ([2]; ligand: 30 µM Zn)
S63A | 0.0607 ± 0.00078 | 0.0733 ± 0.0026 | 0.725 ± 0.037
D64L | 2.28 ± 0.17 | 3.29 ± 0.26 | 4.32 ± 0.14
D64A | 0.0874 ± 0.0065 | 0.158 ± 0.049 | 2.22 ± 0.24
D64C | 0.0848 ± 0.032 | 0.335 ± 0.072 | 2.45 ± 0.3
D64G | 0.06322 ± 0.00026 | 0.121 ± 0.0054 | 1.26 ± 0.049
D64M | 2.97 ± 0.48 | 3.46 ± 0.68 | 4.15 ± 0.31
D64K | 0.154 ± 0.049 | 0.382 ± 0.023 | 3.306 ± 0.03
D64F | 0.267 ± 0.014 | 1.01 ± 0.054 | 3.86 ± 0.28
D64E | 0.0581 ± 0.0018 | 0.061 ± 0.0013 | 0.1552 ± 0.00078
D64I | 0.256 ± 0.028 | 0.837 ± 0.025 | 3.78 ± 0.41
D64H | 0.0682 ± 0.001 | 0.12 ± 0.0054 | 1.81 ± 0.088
P61N K104V G128I | 0.133 ± 0.0086 | 0.341 ± 0.0067 | 1.53 ± 0.083
P61N K104V G128M | 0.395 ± 0.015 | 1.034 ± 0.006 | 3.13 ± 0.069
P61N D64K K104V | 0.26 ± 0.0026 | 0.752 ± 0.037 | 2.41 ± 0.1
P61C | 0.0755 ± 0.001 | 0.193 ± 0.0083 | 1.78 ± 0.031
P61Y | 0.0638 ± 0.0015 | 0.0757 ± 0.0018 | 0.148 ± 0.0023
P61Q | 0.0755 ± 0.0015 | 0.148 ± 0.0065 | 1.07 ± 0.024
P61N | 0.07825 ± 0.00026 | 0.13 ± 0.078 | 1.74 ± 0.049
P61A | 0.0665 ± 0.00078 | 0.108 | 1.22 ± 0.092
P61M | 0.0682 ± 0.001 | 0.1424 ± 0.0013 | 0.714 ± 0.039
P61G | 0.0819 ± 0.0029 | 0.2936 ± 0.0021 | 2.2 ± 0.053
P61K | 0.068 ± 0.00078 | 0.107 ± 0.0031 | 1.6 ± 0.1
P61H | 0.0658 ± 0.00078 | 0.117 ± 0.0021 | 0.797 ± 0.015

Variant | sfGFP reporter fluorescence [1] | sfGFP reporter fluorescence ([2]; ligand: 1 µM Pb) | sfGFP reporter fluorescence ([2]; ligand: 30 µM Zn)
P61T | 0.0865 ± 0.001 | 0.211 ± 0.006 | 1.94 ± 0.03
P61S | 0.0755 ± 0.00052 | 0.146 ± 0.0036 | 2.15 ± 0.052
P61F | 0.0608 ± 0.0031 | 0.0651 ± 0.0023 | 0.09382 ± 0.00052
P61L | 0.0638 ± 0.0026 | 0.0823 ± 0.0039 | 0.191 ± 0.0057
P61E | 0.0693 | 0.0991 ± 0.0049 | 0.338 ± 0.042
P61R | 0.0715 ± 0.0031 | 0.1231 ± 0.00052 | 1.42 ± 0.021
P61I | 0.0553 ± 0.0067 | 0.06414 ± 0.00052 | 0.112 ± 0.00026
P61D | 0.0729 | 0.123 ± 0.0044 | 0.709 ± 0.02
P61W | 0.061 ± 0.0039 | 0.06395 ± 0.00026 | 0.104 ± 0.0018
P61V | 0.0651 ± 0.0013 | 0.09 ± 0.0029 | 0.302
P61N D64K L107C | 2.69 ± 0.12 | 3.57 ± 0.046 | 3.69 ± 0.12
P61N D64K L107C G128I | 3.28 ± 0.15 | 4.88 ± 0.7 | 4.54 ± 0.044
P61N D64K L107C G128M | 4.78 ± 0.1 | 5.3 ± 0.14 | 4.84 ± 0.18
D64K G128M | 0.806 ± 0.04 | 1.86 ± 0.25 | 4.98 ± 0.34
D64K G128I | 0.371 ± 0.021 | 1.32 ± 0.067 | 4.45 ± 0.14
M60Q | 0.0603 ± 0.00078 | 0.0588 ± 0.0018 | 0.0614 ± 0.0013
M60R | 0.0614 ± 0.0034 | 0.0612 ± 0.001 | 0.0619 ± 0.0015
M60S | 0.0601 | 0.0608 ± 0.001 | 0.0592 ± 0.00078
M60V | 0.0715 ± 0.0015 | 0.1459 ± 0.001 | 1.05 ± 0.012
M60W | 0.135 ± 0.0096 | 0.384 ± 0.026 | 0.926 ± 0.01
M60T | 0.0601 ± 0.001 | 0.0621 ± 0.00078 | 0.0645 ± 0.001
M60Y | 0.0621 ± 0.0013 | 0.0662 ± 0.0013 | 0.12 ± 0.00078
P61N K104V L107C G128M | 0.584 ± 0.064 | 2.12 ± 0.083 | 3.41 ± 0.56

Variant | sfGFP reporter fluorescence [1] | sfGFP reporter fluorescence ([2]; ligand: 1 µM Pb) | sfGFP reporter fluorescence ([2]; ligand: 30 µM Zn)
P61N K104V L107C G128I | 0.289 ± 0.0057 | 1.306 ± 0.0026 | 2.66 ± 0.067
P61N D64K K104V G128I | 0.32 ± 0.048 | 0.989 ± 0.27 | 2.48 ± 0.29
P61N D64K K104V G128M | 0.739 ± 0.021 | 1.592 ± 0.0036 | 3.375 ± 0.019
D64K K104V L107C | 2.05 ± 0.034 | 4.21 ± 0.2 | 4.1 ± 0.055
P61N K104V | 0.121 ± 0.016 | 0.385 ± 0.007 | 1.77 ± 0.47
P61N L107C G128M | 3.31 ± 0.13 | 4.37 ± 0.48 | 5.17 ± 0.11
P61N L107C G128I | 1.6 ± 0.35 | 2.91 ± 0.12 | 3.99 ± 0.4
D64A L68S | 0.0623 ± 0.0021 | 0.0597 ± 0.0026 | 0.0803 ± 0.0036
D64K K104V L107C G128M | 3.13 ± 0.25 | 3.98 ± 0.082 | 3.57 ± 0.84
D64K K104V L107C G128I | 2.19 ± 0.12 | 4.16 ± 0.23 | 3.35 ± 0.64
D64K L107C | 3.83 ± 0.36 | 3.75 ± 0.15 | 4.11 ± 0.21
D64K K104V | 0.4361 ± 0.0031 | 1.44 ± 0.053 | 4.041 ± 0.031
D64K L107C G128M | 6.27 ± 0.28 | 5.91 ± 0.52 | 4.866 ± 0.045
D64K L107C G128I | 4.71 ± 0.58 | 4.78 ± 0.6 | 4.48 ± 0.43
P61N D64K | 0.232 ± 0.0052 | 0.762 ± 0.12 | 3.05 ± 0.076
L62S | 0.0619 ± 0.0015 | 0.063 ± 0.001 | 0.0744 ± 0.001
L62H | 0.06285 ± 0.00026 | 0.0638 ± 0.001 | 0.0918 ± 0.0049
L62D | 0.06066 ± 0.00026 | 0.0629 ± 0.0018 | 0.0649 ± 0.001
L62E | 0.06066 ± 0.00026 | 0.0625 ± 0.0023 | 0.0658 ± 0.0013
L62K | 0.0632 ± 0.0013 | 0.0619 ± 0.001 | 0.0815 ± 0.0018
L62M | 0.066 ± 0.001 | 0.0962 ± 0.0049 | 0.533 ± 0.033
L62P | 0.06194 ± 0.00052 | 0.06487 ± 0.00052 | 0.0993 ± 0.0042
L62T | 0.0607 ± 0.0034 | 0.0674 ± 0.0031 | 0.133 ± 0.0031

Variant | sfGFP reporter fluorescence [1] | sfGFP reporter fluorescence ([2]; ligand: 1 µM Pb) | sfGFP reporter fluorescence ([2]; ligand: 30 µM Zn)
L62A | 0.06469 ± 0.00026 | 0.0634 ± 0.0031 | 0.0839 ± 0.0062
L62N | 0.061 ± 0.00078 | 0.0632 ± 0.00078 | 0.08008 ± 0.00026
L62F | 0.0599 ± 0.0023 | 0.0652 ± 0.0015 | 0.168 ± 0.0039
L62W | 0.0616 ± 0.0042 | 0.0603 ± 0.0034 | 0.0665 ± 0.0013
L62C | 0.061 ± 0.0018 | 0.0651 ± 0.0013 | 0.0995 ± 0.00078
L62Y | 0.0599 ± 0.0023 | 0.0623 ± 0.00052 | 0.0748 ± 0.0057
L62G | 0.0586 ± 0.001 | 0.0579 ± 0.0015 | 0.0614 ± 0.00078
L62I | 0.05992 ± 0.00026 | 0.0883 ± 0.0062 | 0.88 ± 0.14
L62Q | 0.0597 ± 0.001 | 0.0608 ± 0.001 | 0.0819 ± 0.0018
L62V | 0.0621 ± 0.0018 | 0.08008 ± 0.00078 | 0.396 ± 0.0088
L62R | 0.06377 ± 0.00052 | 0.0643 ± 0.0013 | 0.0704 ± 0.0047
P61N G128M | 0.481 ± 0.039 | 1.59 ± 0.34 | 4.72 ± 0.4
P61N G128I | 0.1886 ± 0.0018 | 0.682 ± 0.092 | 3.06 ± 0.22
P61N L107C | 1.34 ± 0.084 | 2.4 ± 0.077 | 3.92 ± 0.019
D64K K104V G128I | 0.711 ± 0.092 | 1.75 ± 0.096 | 4.36 ± 0.25
D64K K104V G128M | 1.36 ± 0.059 | 2.78 ± 0.079 | 4.45 ± 0.11
P61N D64K G128I | 0.452 ± 0.022 | 1.46 ± 0.23 | 3.51 ± 0.073
P61N D64K G128M | 1.01 ± 0.069 | 2.17 ± 0.97 | 4.15 ± 0.24
P61N D64K K104V L107C | 0.676 ± 0.011 | 2.12 ± 0.066 | 2.74 ± 0.35
P61N K104V L107C | 0.283 ± 0.021 | 1.28 ± 0.11 | 2.54 ± 0.079
